Assay results taken from the Human Domainome abundance scans (Beltran et al. 2025).
± gives the uncertainty stated by the source.

B1: Storkhead-box protein 2, residues 64 to 141; numbered along this chain, Q9P2F5 (parent)
chain: SPISQSQFIPLGEILCLAISAMNSARKPVTQEALMEHLTTCFPGVPTPSQEILRHTLNTLVRERKIYPTPDGYFIVTP

Variants of: B1
Experiment: abundance fitness (aPCA) (normalised: wild type 0, dead -1); higher = more abundant; growth selection in yeast, the domain comes from the species named
Details: Homo sapiens

Row | Variant | abundance fitness
1 | SPISQSQFIPLGEILCLAISAMNSARKPVTQEALMEHLTTCFPGVPTPSQEILRHTLNTLVRARKIYPTPDGYFIVTP [E63A] | -0.019 ± 0.039
2 | SPISQSQFIPLGEILCLAISAMNSARKPVTQEALMEHLTTCFPGVPTPSQEILRHTLNTLVRDRKIYPTPDGYFIVTP [E63D] | -0.004 ± 0.089
3 | SPISQSQFIPLGEILCLAISAMNSARKPVTQEALMEHLTTCFPGVPTPSQEILRHTLNTLQRERKIYPTPDGYFIVTP [V61Q] | -0.013 ± 0.095
4 | SPISQSQFIPLGEILCLAISAMNSARKPVTQEALMEHLTTCFPGVPTPSQEILRHTLNTLSRERKIYPTPDGYFIVTP [V61S] | -0.008 ± 0.043
5 | SPISQSQFIPLGEILCLAISAMNSARKPVTQEALMEHLTTCFPGVPTPSQEILRHTLNTLLRERKIYPTPDGYFIVTP [V61L] | -0.05 ± 0.046
6 | SPISQSQFIPLGEILCLAISAMNSARKPVTQEALMEHLTTCFPGVPTPSQEILRHTLNTLKRERKIYPTPDGYFIVTP [V61K] | -0.146 ± 0.077
7 | SPISQSQFIPLGEILCLAISAMNSARKPVTQEALMEHLTTCFPGVPTPSQEILRHTLNTLMRERKIYPTPDGYFIVTP [V61M] | 0.052 ± 0.067
8 | SPISQSQFIPLGEILCLAISAMNSARKPVTQEALMEHLTTCFPGVPTPSQEILRHTLNTLHRERKIYPTPDGYFIVTP [V61H] | -0.122 ± 0.097
9 | SPISQSQFIPLGEILCLAISAMNSARKPVTQEALMEHLTTCFPGVPTPSQEILRHTLNTLPRERKIYPTPDGYFIVTP [V61P] | -1.05 ± 0.14
10 | SPISQSQFIPLGEILCLAISAMNSARKPVTQEALMEHLTTCFPGVPTPSQEILRHTLNTLARERKIYPTPDGYFIVTP [V61A] | 0.029 ± 0.042
11 | SPISQSQFIPLGEILCLAISAMNSARKPVTQEALMEHLTTCFPGVPTPSQEILRHTLNTLYRERKIYPTPDGYFIVTP [V61Y] | -0.208 ± 0.13
12 | SPISQSQFIPLGEILCLAISAMNSARKPVTQEALMEHLTTCFPGVPTPSQEILRHTLNTLDRERKIYPTPDGYFIVTP [V61D] | -0.186 ± 0.1
13 | SPISQSQFIPLGEILCLAISAMNSARKPVTQEALMEHLTTCFPGVPTPSQEILRHTLNTLNRERKIYPTPDGYFIVTP [V61N] | -0.432 ± 0.28
14 | SPISQSQFIPLGEILCLAISAMNSARKPVTQEALMEHLTTCFPGVPTPSQEILRHTLNTLCRERKIYPTPDGYFIVTP [V61C] | 0.04 ± 0.078
15 | SPISQSQFIPLGEILCLAISAMNSARKPVTQEALMEHLTTCFPGVPTPSQEILRHTLNTLIRERKIYPTPDGYFIVTP [V61I] | -0.014 ± 0.1
16 | SPISQSQFIPLGEILCLAISAMNSARKPVTQEALMEHLTTCFPGVPTPSQEILRHTLNTLFRERKIYPTPDGYFIVTP [V61F] | -0.166 ± 0.1
17 | SPISQSQFIPLGEILCLAISAMNSARKPVTQEALMEHLTTCFPGVPTPSQEILRHTLNTLERERKIYPTPDGYFIVTP [V61E] | -0.028 ± 0.062
18 | SPISQSQFIPLGEILCLAISAMNSARKPVTQEALMEHLTTCFPGVPTPSQEILRHTLNTLTRERKIYPTPDGYFIVTP [V61T] | 0.019 ± 0.071

Row | Variant | abundance fitness
19 | SPISQSQFIPLGEILCLAISAMNSARKPVTQEALMEHLTTCFPGVPTPSQEILRHTLNTCVRERKIYPTPDGYFIVTP [L60C] | -0.107 ± 0.076
20 | SPISQSQFIPLGEILCLAISAMNSARKPVTQEALMEHLTTCFPGVPTPSQEILRHTLNTMVRERKIYPTPDGYFIVTP [L60M] | -0.126 ± 0.055
21 | SPISQSQFIPLGEILCLAISAMNSARKPVTQEALMEHLTTCFPGVPTPSQEILRHTLNTVVRERKIYPTPDGYFIVTP [L60V] | -0.587 ± 0.052
22 | SPISQSQFIPLGEILCLAISAMNSARKPVTQEALMEHLTTCFPGVPTPSQEILRHTLNTHVRERKIYPTPDGYFIVTP [L60H] | -0.719 ± 0.11
23 | SPISQSQFIPLGEILCLAISAMNSARKPVTQEALMEHLTTCFPGVPTPSQEILRHTLNTAVRERKIYPTPDGYFIVTP [L60A] | -0.213 ± 0.044
24 | SPISQSQFIPLGEILCLAISAMNSARKPVTQEALMEHLTTCFPGVPTPSQEILRHTLNTWVRERKIYPTPDGYFIVTP [L60W] | -0.525 ± 0.067
25 | SPISQSQFIPLGEILCLAISAMNSARKPVTQEALMEHLTTCFPGVPTPSQEILRHTLNTYVRERKIYPTPDGYFIVTP [L60Y] | -0.666 ± 0.12
26 | SPISQSQFIPLGEILCLAISAMNSARKPVTQEALMEHLTTCFPGVPTPSQEILRHTLNTFVRERKIYPTPDGYFIVTP [L60F] | -0.401 ± 0.068
27 | SPISQSQFIPLGEILCLAISAMNSARKPVTQEALMEHLTTCFPGVPTPSQEILRHTLNTQVRERKIYPTPDGYFIVTP [L60Q] | -0.342 ± 0.049
28 | SPISQSQFIPLGEILCLAISAMNSARKPVTQEALMEHLTTCFPGVPTPSQEILRHTLNTEVRERKIYPTPDGYFIVTP [L60E] | -0.835 ± 0.11
29 | SPISQSQFIPLGEILCLAISAMNSARKPVTQEALMEHLTTCFPGVPTPSQEILRHTLNTSVRERKIYPTPDGYFIVTP [L60S] | -0.828 ± 0.052
30 | SPISQSQFIPLGEILCLAISAMNSARKPVTQEALMEHLTTCFPGVPTPSQEILRHTLNTNVRERKIYPTPDGYFIVTP [L60N] | -0.927 ± 0.17
31 | SPISQSQFIPLGEILCLAISAMNSARKPVTQEALMEHLTTCFPGVPTPSQEILRHTLNTPVRERKIYPTPDGYFIVTP [L60P] | -1.07 ± 0.099
32 | SPISQSQFIPLGEILCLAISAMNSARKPVTQEALMEHLTTCFPGVPTPSQEILRHTLNTRVRERKIYPTPDGYFIVTP [L60R] | -1.07 ± 0.079
33 | SPISQSQFIPLGEILCLAISAMNSARKPVTQEALMEHLTTCFPGVPTPSQEILRHTLNTGVRERKIYPTPDGYFIVTP [L60G] | -0.706 ± 0.057
34 | SPISQSQFIPLGEILCLAISAMNSARKPVTQEALMEHLTTCFPGVPTPSQEILRHTLNTTVRERKIYPTPDGYFIVTP [L60T] | -0.87 ± 0.075
35 | SPISQSQFIPLGEILCLAISAMNSARKPVTQEALMEHLTTCFPGVPTPSQEILRHTLNTIVRERKIYPTPDGYFIVTP [L60I] | -0.384 ± 0.1
